Bridge positions count the residues as written; N and C are the ends. Square brackets hold non-standard residues; d marks the D form. Tyr(3-NO2) = N[C@@H](Cc1ccc(O)c([N+](=O)[O-])c1)C(=O)O; Arg(NO2) = N=C(NCCC[C@H](N)C(=O)O)N[N+](=O)[O-]

By Kd is commonly meant the free concentration of one partner at which half of the binding sites on the other are occupied at equilibrium, for simple one-to-one binding. Higher therefore signals weaker binding. Broadly, the koff is a measure of how fast the partners let go of each other. What is called kon is a measure of how fast the partners come together. Lower therefore signals slow association.

The target in test [1] is T1, human soluble FcRn (human, UniProt P55899 24-297; P61769 21-119, limits assumed, chemically biotinated with NHS-biotin in the mRNA display assays; amine-coupled to the sensor chip in the Biacore assay).
T1 construct: also called neonatal Fc receptor
Briefly: SPR, Biacore T100, KD at pH 7.4 against KD at pH 6.0. As for the experimental part:
(§1) In order to find whether a peptide alone interacts with FcRn in a pH dependent manner, the peptide 2G01D not having SGSGS on the C-terminal side of 8D-01 and amidated at the C-terminal was synthesized on a solid phase and a dissociation constant Kd binding constant was measured using Biacore T100 (GE Healthcare). FcRn was immobilized onto a sensor chip by an amine coupling method. The following is the peptide 2G01D:
(§2) On the other hand, a solid-phase synthesized peptide 2G01D was added as an analyte to a phosphate buffer having a pH 6.0 or 7.4 and a dissociation constant was measured.
For orientation: Surface plasmon resonance follows binding to a sensor surface in real time, without labels.

Test [2] has as its target T1, human soluble FcRn. The experiment in a line: SPR, Biacore T100, FcRn amine-coupled to chip, peptide as analyte, phosphate buffer pH 6.0. As for the experimental part:
as §1, §2

Test [3] has as its target T1, human soluble FcRn. Briefly: SPR, Biacore T100, FcRn amine-coupled to chip, peptide as analyte, phosphate buffer pH 7.4. As for the experimental part:
as §1, §2

T1 sequence (P55899 24-297 limits assumed, chain 1 of 2): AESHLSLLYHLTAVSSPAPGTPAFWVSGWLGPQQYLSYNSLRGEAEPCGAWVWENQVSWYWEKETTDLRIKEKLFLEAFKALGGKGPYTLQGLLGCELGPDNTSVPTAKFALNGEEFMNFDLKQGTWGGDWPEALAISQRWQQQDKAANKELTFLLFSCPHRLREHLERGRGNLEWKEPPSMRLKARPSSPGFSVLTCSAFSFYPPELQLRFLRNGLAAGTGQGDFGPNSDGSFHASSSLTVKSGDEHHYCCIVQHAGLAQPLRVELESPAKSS
T1 sequence (P61769 21-119 limits assumed, chain 2 of 2): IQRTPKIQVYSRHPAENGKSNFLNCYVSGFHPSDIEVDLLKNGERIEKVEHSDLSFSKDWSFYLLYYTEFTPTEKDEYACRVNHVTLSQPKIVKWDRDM

B1: peptide 2G01D (peptide)
peptide: {CH2CO}-[dNty]F[Tyr(3-NO2)]LYN[Arg(NO2)]GDPL[Tyr(3-NO2)]LCG-NH2
modifications: thioether N-14; not fully specified
notes: also called solid-phase synthesized peptide 2G01D
Regarding B1, the “fold change in dissociation constant between pH 7.4 and pH 6.0” value with human soluble FcRn [1] is around 70 times. In the test with human soluble FcRn [2], this molecule came in with a Kd of 4.26 nM, a koff of 0.00394 s⁻¹ and a kon of 925000 M⁻¹ s⁻¹. In the test with human soluble FcRn [3], this molecule showed a Kd of 293 nM, a koff of 0.00955 s⁻¹ and a kon of 32600 M⁻¹ s⁻¹.

Values taken from US20150133630A1 (UNIVERSITY OF TOKYO, published 2015).
